According to article PMC11849118:

Molecular target: T1, CFP-tagged hABHD5 (Human ABHD5-ECFP) (human), Q8WTS1
T1 chain: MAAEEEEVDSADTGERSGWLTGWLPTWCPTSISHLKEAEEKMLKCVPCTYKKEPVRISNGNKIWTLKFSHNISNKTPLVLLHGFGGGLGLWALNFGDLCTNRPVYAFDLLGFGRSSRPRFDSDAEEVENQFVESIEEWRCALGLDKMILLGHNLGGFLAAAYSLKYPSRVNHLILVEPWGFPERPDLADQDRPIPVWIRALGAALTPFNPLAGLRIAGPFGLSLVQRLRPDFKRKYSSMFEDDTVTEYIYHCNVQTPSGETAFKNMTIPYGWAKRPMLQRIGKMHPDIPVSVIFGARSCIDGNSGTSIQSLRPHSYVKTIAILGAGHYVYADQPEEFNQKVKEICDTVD
Experiment: fluorescence cross-correlation spectroscopy (FCCS); live cell dual color FCCS in transfected cells loaded with oleic acid overnight; excitation focused into the center of the cytoplasm; Fc = fraction of diffusers that are multicolored clusters
Details: remark: other sources report otherwise

B1: WT hPNPLA3-EYFP, Q9NST1 1-481 (natural protein)
chain: MYDAERGWSLSFAGCGFLGFYHVGATRCLSEHAPHLLRDARMLFGASAGALHCVGVLSGIPLEQTLQVLSDLVRKARSRNIGIFHPSFNLSKFLRQGLCKCLPANVHQLISGKIGISLTRVSDGENVLVSDFRSKDEVVDALVCSCFIPFYSGLIPPSFRGVRYVDGGVSDNVPFIDAKTTITVSPFYGEYDICPKVKSTNFLHVDITKLSLRLCTGNLYLLSRAFVPPDLKVLGEICLRGYLDAFRFLEEKGICNRPQPGLKSSSEGMDPEVAMPSWANMSLDSSPESAALAVRLEGDELLDHLRLSILPWDESILDTLSPRLATALSEEMKDKGGYMSKICNLLPIRIMSYVMLPCTLPVESAIAIVQRLVTWLPDMPDDVLWLQWVTSQVFTRVLMCLLPASRSQMPVSSQQASPCTPEQDWPCWTPCSPKGCPAETKAEATPRSILRSSLNFFLGNKVPAGAEGLSTFPSFSLEKSL
Fc (fraction of diffusers that are multicolored clusters of ABHD5 and PNPLA3): 0.32
percent of ABHD5 codiffusing with PNPLA3: 24%
percent of PNPLA3 codiffusing with ABHD5: 78%
